Starred links: 1 amine or outer side, 2 acyl side, 3 side chain; linkers in the order of their positions; H or OH if unused. Non-standard residues stand in square brackets, D forms with d. Groups on a side chain read outwards from the residue. No end group written: not given here. *: point of attachment. C18 diacid = O=C(O)CCCCCCCCCCCCCCCCC(=O)*; γGlu = O=C(O)[C@H](CCC(=O)[*:2])N[*:1]; 4Pal = N[C@@H](Cc1ccncc1)C(=O)O; AEEA = NCCOCCOCC(=O)O; Aib = CC(C)(N)C(=O)O
Tests used:
[1] = biological target: T1, human glucose-dependent insulinotropic polypeptide (GIP) receptor (human, UniProt P48546 22-466); assay: SPA, displacement of [125I]-GIP from hGIPR membranes, 0.1% bacitracin
T1 construct: whole, on cells; Assayed as crude membranes of stably transfected CHO cells; also called hGIPR; human GIP receptor
T1 sequence (looked up): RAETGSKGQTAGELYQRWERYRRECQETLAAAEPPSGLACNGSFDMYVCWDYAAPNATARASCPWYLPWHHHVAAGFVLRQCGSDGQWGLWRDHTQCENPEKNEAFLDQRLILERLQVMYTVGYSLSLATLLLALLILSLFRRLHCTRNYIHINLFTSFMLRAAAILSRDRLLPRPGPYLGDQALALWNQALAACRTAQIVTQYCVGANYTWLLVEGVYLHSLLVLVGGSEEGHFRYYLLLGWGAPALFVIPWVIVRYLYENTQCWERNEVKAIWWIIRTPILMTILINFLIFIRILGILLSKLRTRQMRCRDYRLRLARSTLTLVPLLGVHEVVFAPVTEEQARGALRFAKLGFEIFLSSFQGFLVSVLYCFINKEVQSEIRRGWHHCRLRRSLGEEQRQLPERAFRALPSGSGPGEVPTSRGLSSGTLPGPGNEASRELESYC

human GLP-1 receptor = biological target: T2, human GLP-1 receptor (human, UniProt P43220 24-463); assay: SPA, displacement of [125I]-GLP-1 from hGLP-1R membranes, 0.1% bacitracin
T2 construct: whole, on cells; Assayed as crude membranes of stably transfected HEK293 cells; also called hGLP1R; hGLP-1R
Procedure: The binding buffer contains 25 mM HEPES, pH 7.4, 2.5 mM CaCl₂, 1 mM MgCl₂, 0.1% (w/v) bacitracin, 0.003% (w/v) TWEEN®-20, and Roche Complete™ Protease Inhibitors without EDTA.
Data are analyzed using four-parameter (curve maximum, curve minimum, […], Hill slope) nonlinear regression routines (Genedata Screener, version 12.0.4, Genedata AG, Basal, Switzerland). […] Values for Kᵢ are reported as the geometric mean, with error expressed as the standard error of the mean (SEM) and n is equal to the number of independent replicates (determined in assays performed on different days). Geometric Means are calculated as follows: […]

Binder	Ki [1] [nM]	Ki (human GLP-1 receptor) [nM]
Y[Aib]EGTFISDYSILLDKK([AEEA-AEEA-γGlu-C18 diacid])HQ[Aib]DFVE[4Pal]LLAGGPSSGAPPPS-NH2 (N-terminus assumed; SMILES CC[C@H](C)[C@H](NC(=O)[C@H](CO)NC(=O)[C@H](Cc1ccc(O)cc1)NC(=O)[C@H](CC(=O)O)NC(=O)[C@H](CO)NC(=O)[C@@H](NC(=O)[C@H](Cc1ccccc1)NC(=O)[C@@H](NC(=O)CNC(=O)[C@H](CCC(=O)O)NC(=O)C(C)(C)NC(=O)[C@@H](N)Cc1ccc(O)cc1)[C@@H](C)O)[C@@H](C)CC)C(=O)N[C@@H](CC(C)C)C(=O)N[C@@H](CC(C)C)C(=O)N[C@@H](CC(=O)O)C(=O)N[C@@H](CCCCN)C(=O)N[C@@H](CCCCNC(=O)COCCOCCNC(=O)COCCOCCNC(=O)CC[C@H](NC(=O)CCCCCCCCCCCCCCCCC(=O)O)C(=O)O)C(=O)N[C@@H](Cc1c[nH]cn1)C(=O)N[C@@H](CCC(N)=O)C(=O)NC(C)(C)C(=O)N[C@@H](CC(=O)O)C(=O)N[C@@H](Cc1ccccc1)C(=O)N[C@H](C(=O)N[C@@H](CCC(=O)O)C(=O)N[C@@H](Cc1ccncc1)C(=O)N[C@@H](CC(C)C)C(=O)N[C@@H](CC(C)C)C(=O)N[C@@H](C)C(=O)NCC(=O)NCC(=O)N1CCC[C@H]1C(=O)N[C@@H](CO)C(=O)N[C@@H](CO)C(=O)NCC(=O)N[C@@H](C)C(=O)N1CCC[C@H]1C(=O)N1CCC[C@H]1C(=O)N1CCC[C@H]1C(=O)N[C@@H](CO)C(N)=O)C(C)C) [Example 22]	0.219	388
Y[Aib]EGTFISDYSIALDKK([AEEA-AEEA-γGlu-C18 diacid])HQ[Aib]DFVE[4Pal]LLAGGPSSGAPPPS-NH2 (N-terminus assumed; SMILES CC[C@H](C)[C@H](NC(=O)[C@H](CO)NC(=O)[C@H](Cc1ccc(O)cc1)NC(=O)[C@H](CC(=O)O)NC(=O)[C@H](CO)NC(=O)[C@@H](NC(=O)[C@H](Cc1ccccc1)NC(=O)[C@@H](NC(=O)CNC(=O)[C@H](CCC(=O)O)NC(=O)C(C)(C)NC(=O)[C@@H](N)Cc1ccc(O)cc1)[C@@H](C)O)[C@@H](C)CC)C(=O)N[C@@H](C)C(=O)N[C@@H](CC(C)C)C(=O)N[C@@H](CC(=O)O)C(=O)N[C@@H](CCCCN)C(=O)N[C@@H](CCCCNC(=O)COCCOCCNC(=O)COCCOCCNC(=O)CC[C@H](NC(=O)CCCCCCCCCCCCCCCCC(=O)O)C(=O)O)C(=O)N[C@@H](Cc1c[nH]cn1)C(=O)N[C@@H](CCC(N)=O)C(=O)NC(C)(C)C(=O)N[C@@H](CC(=O)O)C(=O)N[C@@H](Cc1ccccc1)C(=O)N[C@H](C(=O)N[C@@H](CCC(=O)O)C(=O)N[C@@H](Cc1ccncc1)C(=O)N[C@@H](CC(C)C)C(=O)N[C@@H](CC(C)C)C(=O)N[C@@H](C)C(=O)NCC(=O)NCC(=O)N1CCC[C@H]1C(=O)N[C@@H](CO)C(=O)N[C@@H](CO)C(=O)NCC(=O)N[C@@H](C)C(=O)N1CCC[C@H]1C(=O)N1CCC[C@H]1C(=O)N1CCC[C@H]1C(=O)N[C@@H](CO)C(N)=O)C(C)C) [Example 21]	1.46	801
